B1: 6xHis-CnTps1 (full-length Cryptococcus neoformans trehalose-6-phosphate synthase) (enzyme, UniProt Q6IVK9 1-670, looked up)
chain: MTTMSNDIPNSPTSTSFTGTFSPAATAANTAANARTSDAPSPTTSSSGPKLETSKEQRLIVVSNRLPVTISKDDNGEYHFKMSSGGLVSALSGCKKTMSFTWIGWPGKDIPMQDRETVNRRLLDEYNCYPVYLSDELADSHYNGSFSNSILWPLFHYHPGEMNFDAAHWLAYREANMRFADVVSSLVQAGDMVWVQDYHLMLLPMLLRSMITGESAQGEMVRQELGRVKEGVDDTVVKEVLKMGPGVAQAEDEGVEMLDDVEEEGGEMDVKSSPKRPHYARGMSTFQKQELVAKEKGKEGIRIGFFLHTPFPSSEIYRILPVRREILLGVLQCDLIGFHTYDYARHFLSSCTRILGLETQPNGIEFDGRYCQVGTFPIGIDPNQFIEGLQKESIVKRLRSLEARFEGVKVIIGVDRLDYIKGIPQKLQALETFLTQHPEWIGKVVLVQLAIPSRQDVEEYQDLRACVNELVGRINGRFGTVESVPIHYMHKSVPFEELTAMYALADACLVTSTRDGMNLVAYEYISSQAERHGSMILSEFAGAAQSFNGSLLINPWDVQSTADAINQALTLSPQQRKTNWQKLFNYVSKYTAEAWGVSFVNELNRLSGQRPSGPTGLAGRRKSGSLSRTSSKASIQRRKSSQSGIVTGLGAAAGAAVNWAQAQVQGGSQT

Experiments:
[1] = biological target: CnTps1 ΔIDD (Cryptococcus neoformans var. grubii strain H99 | Candida albicans) (UniProt Q6IVK9); assay: SEC
[2] = biological target: the molecule itself; assay: cryo-EM structure

Molecule	stoichiometry N [1]	stoichiometry N [2]
CnTps1 ΔIDD (from UniProt Q6IVK9 1-208; Q6IVK9 301-669) (enzyme)	4	
B1		4
